In paper PMC10313831:

Molecular target: RPA-MeGFP (Saccharomyces cerevisiae) (UniProt P22336+P26754+P26755)
Experiment: single-molecule ssDNA curtains (TIRFM)
Conditions: 10 pM then 100 pM RPA; EMSA: 20 mM Tris-HCl pH 7.5, 150 (or 15) mM KCl, 1 mM DTT, 100 ug/mL BSA, 5 nM DNA, 30 C 10 min; curtains: 40 mM Tris-HCl pH 7.5, 150 or 15 mM NaCl, 2 mM …

RPA-MeGFP (Saccharomyces cerevisiae), sequence (P22336 whole entry, chain 1 of 3): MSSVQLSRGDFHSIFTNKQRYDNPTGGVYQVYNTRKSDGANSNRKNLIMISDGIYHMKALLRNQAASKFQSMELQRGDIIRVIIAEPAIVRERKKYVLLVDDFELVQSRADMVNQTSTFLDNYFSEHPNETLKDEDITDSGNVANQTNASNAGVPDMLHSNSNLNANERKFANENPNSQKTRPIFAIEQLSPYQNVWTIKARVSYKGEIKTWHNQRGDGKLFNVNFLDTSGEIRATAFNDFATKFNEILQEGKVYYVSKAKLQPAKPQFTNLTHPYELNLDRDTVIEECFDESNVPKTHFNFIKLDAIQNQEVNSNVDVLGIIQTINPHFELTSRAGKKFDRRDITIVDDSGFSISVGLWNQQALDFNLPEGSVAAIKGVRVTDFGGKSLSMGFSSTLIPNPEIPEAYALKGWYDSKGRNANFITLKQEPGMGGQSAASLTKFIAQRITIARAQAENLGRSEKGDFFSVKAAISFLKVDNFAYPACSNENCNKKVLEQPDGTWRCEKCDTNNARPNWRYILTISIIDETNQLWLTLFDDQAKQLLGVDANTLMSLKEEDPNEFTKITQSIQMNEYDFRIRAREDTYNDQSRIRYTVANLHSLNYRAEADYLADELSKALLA
RPA-MeGFP (Saccharomyces cerevisiae), sequence (P26754 whole entry, chain 2 of 3): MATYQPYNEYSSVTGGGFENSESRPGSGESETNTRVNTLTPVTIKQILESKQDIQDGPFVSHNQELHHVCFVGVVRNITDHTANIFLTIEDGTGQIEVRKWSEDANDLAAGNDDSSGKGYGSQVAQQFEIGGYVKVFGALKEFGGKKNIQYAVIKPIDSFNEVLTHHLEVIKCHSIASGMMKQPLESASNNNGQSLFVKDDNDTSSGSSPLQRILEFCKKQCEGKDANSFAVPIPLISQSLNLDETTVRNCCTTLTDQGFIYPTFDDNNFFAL
RPA-MeGFP (Saccharomyces cerevisiae), sequence (P26755 whole entry, chain 3 of 3): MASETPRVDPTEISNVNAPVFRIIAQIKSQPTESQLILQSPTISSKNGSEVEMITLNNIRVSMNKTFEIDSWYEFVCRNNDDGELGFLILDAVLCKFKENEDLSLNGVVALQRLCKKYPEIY

M13 ssDNA
binding signal (% length extension): 359
